Laboratory results taken from the supplement of paper PMC7877785.
± gives the uncertainty stated by the source.

Assay: self-splicing fitness, log relative to wild type (ln ratio); higher = more splicing; Tetrahymena group I intron in knt gene, E. coli kanamycin selection, DiMSum; sequences stand for … in CUCUCU…GGAGGGAAAAGUUAUCAGGCAUGCACCUGGUAGCUAGUCUUUAAACCAAUAGAUUGCAUCGGUUUAAAAGGCAAGACCGUCAAAUUGCGGGAAAGGGGUCAACAGCCGUUCAGUACCAAGUCUCAGGGGAAACUUUGAGAUGGCCUUGCAAAGGGUAUGGUAAUAAGCUGACGGACAUGGUCCUAACCACGCAGCCAAGUCCUAAGUCAACAGAUCUUCUGUUGAUAUGGAUGCAGUUCACAGACUAAAUGUCGGUCGGGGAAGAUGUAUUCUUCUCAUAAGAUAUAGUCGGACCUCUCCUUAAUGGGAGCUAGCGGAUGAAGUGAUGCAACACUGGAGCCGCUGGGAACUAAUUUGUAUGCGAAAGUAUAUUGAUUAGUUUUGGAGUACUCGUGGUCG
Summary of the method: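 A randomised library covering all eight P1ex-region intron nucleotides was built with the intron in the knt kanamycin-resistance gene on pET-22b(+) and held in E. coli BL21(DE3). Cells were grown overnight at 37°C or 30°C on LB agar, with or without 25 μg/mL kanamycin, plus 100 μg/mL carbenicillin, 50 μM IPTG and 0.2% rhamnose, and pooled colonies were amplicon-sequenced on an Illumina HiSeq 2500. DiMSum fitness is the error-weighted combination of wild-type-normalised replicate fold changes, kanamycin versus none.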

| Sequence | self-splicing fitness (ln) (37 °C) | self-splicing fitness (ln) (30 °C) |
| --- | --- | --- |
| UUCGAGCAAUAUUACGCCAC | -1.4 ± 0.46 | – |
| UUCGAGCAAUAUUACGCCGG | – | -1.98 ± 0.39 |
| UUCGAGCAAUAUUACGGAAU | -2.87 ± 0.27 | -3.13 ± 0.18 |
| UUCGAGCAAUAUUACGGAGA | -1.38 ± 0.22 | -1.63 ± 0.22 |
| UUCGAGCAAUAUUACGGGAU | -2.05 ± 0.19 | -3.04 ± 0.25 |
| UUCGAGCAAUAUUACGGGGC | -1.48 ± 0.4 | -2.86 ± 0.27 |
| UUCGAGCAAUAUUACGGUAU | -2.22 ± 0.23 | -3.95 ± 0.22 |
| UUCGAGCAAUAUUACGGUCA | -1.26 ± 0.13 | -1.71 ± 0.15 |
| UUCGAGCAAUAUUACGGUCG | -1.91 ± 0.36 | – |
| UUCGAGCAAUAUUACGUACU | -2.01 ± 0.36 | -2.87 ± 0.42 |
| UUCGAGCAAUAUUACGUGAG | -0.0842 ± 0.11 | -1.12 ± 0.067 |
| UUCGAGCAAUAUUACGUUGU | -2.75 ± 0.24 | -2.49 ± 0.18 |
| UUCUAGCAAUAUUACGAAAG | -2.87 ± 0.32 | – |
| UUCUAGCAAUAUUACGAGUU | -1.92 ± 0.13 | -2.55 ± 0.15 |
| UUCUAGCAAUAUUACGAUAA | -0.147 ± 0.19 | -1.46 ± 0.16 |
| UUCUAGCAAUAUUACGAUAC | -2.64 ± 0.41 | -2.08 ± 0.38 |
| UUCUAGCAAUAUUACGCCGG | -2.05 ± 0.37 | – |
| UUCUAGCAAUAUUACGCGAU | – | -1.99 ± 0.22 |
| UUCUAGCAAUAUUACGCUCG | -2.09 ± 0.49 | -2.13 ± 0.26 |
| UUCUAGCAAUAUUACGGAAU | -1.91 ± 0.33 | -4.1 ± 0.39 |
| UUCUAGCAAUAUUACGGCAA | 0.334 ± 0.11 | 0.293 ± 0.1 |
| UUCUAGCAAUAUUACGGCAC | -0.626 ± 0.23 | – |
| UUCUAGCAAUAUUACGGCCC | – | -1.62 ± 0.41 |
| UUCUAGCAAUAUUACGGCGC | -2.7 ± 0.24 | -2.84 ± 0.25 |
| UUCUAGCAAUAUUACGGCUC | -0.913 ± 0.2 | -1.38 ± 0.14 |
| UUCUAGCAAUAUUACGGGAG | -1.47 ± 0.19 | -2.34 ± 0.19 |
| UUCUAGCAAUAUUACGGUUC | -2.44 ± 0.27 | -2.74 ± 0.26 |

| Sequence | self-splicing fitness (ln) (37 °C) | self-splicing fitness (ln) (30 °C) |
| --- | --- | --- |
| UUCUAGCAAUAUUACGUAGA | -2.19 ± 0.25 | -3.73 ± 0.29 |
| UUCUAGCAAUAUUACGUGAU | -1.34 ± 0.21 | -1.89 ± 0.18 |
| UUGAAGCAAUAUUACGAAGA | -0.181 ± 0.17 | -0.989 ± 0.11 |
| UUGAAGCAAUAUUACGAAUU | -1.3 ± 0.31 | -2.73 ± 0.33 |
| UUGAAGCAAUAUUACGAGCU | -1.02 ± 0.19 | -1.76 ± 0.16 |
| UUGAAGCAAUAUUACGAGGC | -1.84 ± 0.47 | -3.28 ± 0.39 |
| UUGAAGCAAUAUUACGAUGA | 0.161 ± 0.099 | 0.15 ± 0.075 |
| UUGAAGCAAUAUUACGAUUA | -0.455 ± 0.096 | 0.283 ± 0.096 |
| UUGAAGCAAUAUUACGCAGC | -1.05 ± 0.34 | -3.74 ± 0.3 |
| UUGAAGCAAUAUUACGGAUG | 0.219 ± 0.12 | 0.196 ± 0.1 |
| UUGAAGCAAUAUUACGGCAA | 0.402 ± 0.12 | 0.615 ± 0.092 |
| UUGAAGCAAUAUUACGGCAU | 1.08 ± 0.08 | -0.14 ± 0.06 |
| UUGAAGCAAUAUUACGGCCA | -0.046 ± 0.13 | 0.0822 ± 0.12 |
| UUGAAGCAAUAUUACGGCGA | 0.256 ± 0.12 | 0.203 ± 0.088 |
| UUGAAGCAAUAUUACGGCUG | 0.572 ± 0.12 | 0.342 ± 0.12 |
| UUGAAGCAAUAUUACGGGAU | -1 ± 0.14 | -2.63 ± 0.14 |
| UUGAAGCAAUAUUACGGGCA | 0.502 ± 0.13 | 0.114 ± 0.11 |
| UUGAAGCAAUAUUACGGGCU | -1.16 ± 0.1 | -3.02 ± 0.14 |
| UUGAAGCAAUAUUACGGGUG | -0.446 ± 0.066 | -0.54 ± 0.048 |
| UUGAAGCAAUAUUACGUCCG | 0.4 ± 0.12 | 0.0359 ± 0.093 |
| UUGAAGCAAUAUUACGUCUG | 0.84 ± 0.081 | 0.509 ± 0.059 |
| UUGAAGCAAUAUUACGUGCA | 0.447 ± 0.1 | -0.222 ± 0.068 |
| UUGAAGCAAUAUUACGUUCC | -2.79 ± 0.35 | – |
| UUGCAGCAAUAUUACGAGUA | -1.42 ± 0.15 | -1.92 ± 0.16 |
| UUGCAGCAAUAUUACGAUAC | -1.74 ± 0.47 | – |
| UUGCAGCAAUAUUACGCACC | – | -0.223 ± 0.47 |
| UUGCAGCAAUAUUACGCGCU | -0.656 ± 0.19 | -1.88 ± 0.18 |

| Sequence | self-splicing fitness (ln) (37 °C) | self-splicing fitness (ln) (30 °C) |
| --- | --- | --- |
| UUGCAGCAAUAUUACGCUUG | -1.97 ± 0.29 | -3.08 ± 0.27 |
| UUGCAGCAAUAUUACGGCAC | -0.741 ± 0.19 | -0.586 ± 0.17 |
| UUGCAGCAAUAUUACGGUCA | 0.556 ± 0.11 | 0.208 ± 0.12 |
| UUGCAGCAAUAUUACGGUUG | -2.04 ± 0.15 | -3.07 ± 0.15 |
| UUGCAGCAAUAUUACGGUUU | -0.603 ± 0.085 | -1.37 ± 0.085 |
| UUGCAGCAAUAUUACGUCCA | 0.00855 ± 0.088 | -0.493 ± 0.1 |
| UUGCAGCAAUAUUACGUCCU | -0.682 ± 0.18 | -0.816 ± 0.14 |
| UUGCAGCAAUAUUACGUCGU | -1.17 ± 0.2 | -1.8 ± 0.16 |
| UUGCAGCAAUAUUACGUCUA | -0.0705 ± 0.11 | -0.361 ± 0.11 |
| UUGCAGCAAUAUUACGUUGA | -1.24 ± 0.12 | -1.61 ± 0.12 |
| UUGGAGCAAUAUUACGAAAG | -2.08 ± 0.37 | -2.5 ± 0.33 |
| UUGGAGCAAUAUUACGACCU | -0.7 ± 0.38 | -2.97 ± 0.32 |
| UUGGAGCAAUAUUACGAGCA | -1.74 ± 0.31 | -3.18 ± 0.37 |
| UUGGAGCAAUAUUACGAGUG | -3.04 ± 0.24 | -4.05 ± 0.33 |
| UUGGAGCAAUAUUACGCGUU | -2.47 ± 0.34 | -2.97 ± 0.47 |
| UUGGAGCAAUAUUACGGACA | -1.91 ± 0.18 | -2.52 ± 0.49 |
| UUGGAGCAAUAUUACGGUGA | -1.36 ± 0.14 | -1.27 ± 0.22 |
| UUGGAGCAAUAUUACGUCUA | -2.49 ± 0.3 | -1.99 ± 0.34 |
| UUGGAGCAAUAUUACGUGUC | -2.77 ± 0.38 | -3.26 ± 0.22 |
| UUGUAGCAAUAUUACGAAUA | -1.64 ± 0.14 | -1.74 ± 0.15 |
| UUGUAGCAAUAUUACGAAUC | -2.76 ± 0.24 | -3.06 ± 0.14 |
| UUGUAGCAAUAUUACGAGGU | -2.61 ± 0.36 | -2.82 ± 0.2 |
| UUGUAGCAAUAUUACGAUUG | -1.42 ± 0.2 | -2.16 ± 0.15 |
| UUGUAGCAAUAUUACGCAAA | -1.05 ± 0.26 | -2.73 ± 0.35 |
| UUGUAGCAAUAUUACGGGCG | 0.346 ± 0.2 | -1.05 ± 0.14 |
